Assay results taken from patent publication US20020045192A1, “Arf and HDM2 interaction domains and methods of use thereof” (St. Jude Children's Research Hospital, priority 2001, published 2002).
“Also recorded” adds a separate entry of the source.

Assays:
[1] = molecular target: T1, Hdm2 210-304 (Homo sapiens, UniProt Q00987); assay: CD-based binding assay, β-strand formation with Hdm2 210-304
T1 construct: poly-His (thrombin-cleavable, from pET28a) (cleaved yes); made in house; host or cells: E. coli BL21 (DE3)
T1 sequence (Q00987 210-304): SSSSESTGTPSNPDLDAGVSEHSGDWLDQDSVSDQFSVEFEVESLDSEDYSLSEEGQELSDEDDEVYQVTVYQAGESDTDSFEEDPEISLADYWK
Protocol: (§1) Spectra were recorded at 25° C. using an Aviv Model 62A DS circular dichroism spectropolarimeter (Aviv Instruments, Inc.) equipped with a thermoelectric temperature control unit. All samples were prepared in 10 mM Tris-HCl, pH 7.0 at 0.02-0.2 mM as determined by amino acid analysis. Spectra were recorded using 1 mm quartz cuveftes and reported spectra are the average of 10 scans over the range […]. Melting experiments were recorded in 10 mm quartz cuvettes with active stirring. The signal at 216 nm (β strand minimum) was used to monitor structural changes and the signal was averaged over 15 sec. The sample temperature was increased in 1° C. steps.
(§2) As discussed above, the addition of mArfN37 to Hdm2 210-304 results in the formation of supramolecular assemblies comprised of β-strands. Stepwise addition of sub-stoichiometric amounts of mArfN37 to Hdm2 210-304 increased β-strand secondary structure content as judged by the change in ellipticity at 200 nm using CD. […] The binding of mArfN37 to Hdm2 210-304, as monitored in this way, is saturable. Similar results were obtained when mArfN37 was mixed with the shorter fragment of Hdm2, Hdm2 210-275. Further, saturable binding is also observed when the Hdm2 fragments were added to an excess of mArfN37. These findings indicate that there are a limited number of binding sites for mArfN37 within Hdm2 210-304 and that discreet structures (containing β-strands) form when mArfN37 and Hdm2 210-304 (or 210-275) are mixed. […] Similar behavior is observed when mArfN37 binds Hdm2 210-275.
To investigate the roles of individual Arf motifs (A1 and A2) and Arf-binding segments of Hdm2 (H1 and H2) in the interactions between Arf and Hdm2 the binding of peptides containing these small segments (A1, A2, H1, or H2) to larger protein fragments of the corresponding binding partner (mArfN37 or Hdm2 210-304) were monitored using the CD-based binding assay. […] Peptides from the Hdm2 library that were positive for mArfN37 binding on the basis of SPR (i.e. those within H1 and H2) were mixed with mArfN37 and binding was monitored in the same manner. Three peptides from the H1 segment and one from the H2 segment of Hdm2 induce β-strand secondary structure when mixed with mArfN37 (FIG. 2c). These experiments indicate that peptides containing A1, A2, H1 or H2 can interact with larger fragments of the target protein and that the interactions also occur through the formation of β-sheet secondary structure. […] Importantly, however, further reduction in the size of the interacting species led to a loss of Arf/Hdm2 binding as judged by a failure to induce structure in CD titration experiments. […] Similarly, while peptides derived from the H1 or H2 segments of Hdm2 bind mArfN37, they fail to bind peptides derived from the A1 or A2 segments of mouse or human Arf. Furthermore, mixtures of two, three, or four different peptides that contain the important binding segments (A1, A2, H1, and H2) fail to interact, in contrast to the results obtained when A1 and A2, or H1 and H2, are covalent linked in larger protein fragments. Apparently, cooperative interactions between covalently linked binding segments from one protein (A1 and A2 of Arf, or H1 and H2 of Hdm2) are minimally required for Arf/Hdm2 interactions.

[2] = molecular target: T2, Hdm2 210-275 (Homo sapiens, UniProt Q00987); assay: CD-based binding assay, β-strand formation with Hdm2 210-275
T2 construct: poly-His (thrombin-cleavable, from pET28a) (cleaved yes); made in house; host or cells: E. coli BL21 (DE3)
T2 sequence (Q00987 210-275): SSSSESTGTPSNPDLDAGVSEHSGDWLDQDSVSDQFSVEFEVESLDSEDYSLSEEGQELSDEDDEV
Protocol: as §1, §2

[3] = molecular target: T3, mArfN37 (Mus musculus, UniProt Q64364); assay: SPR binding of Hdm2 constructs and Hdm2 peptides to immobilized His-tagged mArfN37
T3 construct: An N-terminal fragment of mouse p19^Arf corresponding to residues 1-37 (mArfN37) was purified in a similar manner; made in house
T3 sequence (Q64364 1-37 limits assumed): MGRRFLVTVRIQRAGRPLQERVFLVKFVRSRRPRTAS
Protocol: Binding studies were performed using a Biacore 3000 surface plasmon resonance (SPR) instrument (Biacore, Inc.). A Tetra-His™ Antibody (Qiagen, Inc.; Cat. #34670) was covalently attached to a carboxymethylated gold surface (C-1 chip; Biacore, Inc.). The carboxymethyl groups on the surface were activated with N-ethyl-N′-(3-dimethylaminopropyl) carbodiimide (EDC) and N-hydroxysuccinimide (NHS) and the antibody was attached at pH 7.4 in 20 mM sodium phosphate buffer, 150 mM NaCl (PBS). Reactive sites remaining on the surface were blocked by reaction with ethanolamine. […] Binding was measured by flowing the non-His-tagged analyte through the reference and ligand-containing flow cells in sequence. […] Changes in the SPR response due to solvent differences and the injection process were monitored by injection of HBS-N buffer alone. […]
It has been previously shown that a fragment of mouse p19^Arf containing the N-terminal 37 amino acids (mArfN37) can (i) bind Hdm2, (ii) cause the relocalization of Hdm2 to nucleoli, and (iii) induce cell cycle arrest in MEFs [see, U.S. patent application Ser. No. 09/480,718, Filed Jan. […] However, because mArfN37 is a relatively small polypeptide, it was determined whether it could bind a correspondingly small segment of Hdm2. […]

[4] = molecular target: T4, GFP-p19^Arf (Mus musculus, UniProt Q64364); assay: Nuclear microinjection and live cell imaging of Texas Red labeled Hdm2 constructs in NIH 3T3 cells lacking Arf; type: cell-based; settings: NIH 3T3 Arf-/- cells, nuclear microinjection
T4 construct: expressed in transfected cells; host or cells: NIH 3T3 Arf-/- cells
T4 sequence (Q64364 1-169): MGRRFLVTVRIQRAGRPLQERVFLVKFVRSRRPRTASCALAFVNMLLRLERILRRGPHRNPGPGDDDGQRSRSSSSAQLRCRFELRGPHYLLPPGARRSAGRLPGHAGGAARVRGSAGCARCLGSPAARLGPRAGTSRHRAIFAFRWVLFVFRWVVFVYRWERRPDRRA
Protocol: Proteins for fluorescence microimaging studies were covalently modified using an amine-reactive, sulfosuccinimidyl ester of Texas Red™ (Molecular Probes, Inc., Cat. # C-1171). In brief, purified Hdm2-derived proteins were dialyzed into 100 mM sodium bicarbonate buffer, pH 8.3 at 2-4 mg/ml. The Texas Red™ dye was dissolved in dimethylsulfoxide at 10 mg/ml. Protein and dye 3:1 (vol:vol) were reacted for 1 hour at room temperature followed by purification using size-exclusion chromatography (NAP 5 G-25 columns, Amersham Pharmacia Biotech, Inc.). Labeled protein bands migrated more slowly than unlabeled protein in SDS-polyacrylamide gels consistent with the covalent attachment of dye.
NIH 3T3 Arf^−/− cells passage 10-15 were cultured in Dulbecco's modified Eagle's medium (Dulbecco's modified Eagle's medium (DMEM); Gibco-Invitrogen, Inc.), 10% fetal bovine serum (FBS) at 37° C., 7% CO2. 24 hours prior to transfection, cells were plated on 35 mm dishes coated with poly-D-Lysine (Mattek, Corp.) at a density of 3×10^4 cells per dish. Cells were transfected with a pcDNA plasmid (Invitrogen) containing the GFP-p19^ARF fusion protein using Fugene-6 (Roche Molecular Biochemicals, Inc.) in media according to the protocol supplied by the manufacturer. Sixteen hours post-transfection, the transfection media was refreshed with DMEM, 10% FBS and the cells were allowed to recover for four hours. […] An Axiovert 135 TV inverted fluorescence microscope with an automated stage controller (Carl Zeiss, Inc.) and circulating water bath heater (Fisher) was used for both microinjection and imaging. […]
Hdm2 deletion constructs tagged with a fluorescent label (Texas Red™) were microinjected into the nucleus of NIH 3T3 cells. importantly, the NIH 3T3 cell line used lacks the gene for Arf. […] A covalently bound fluorescent label was used to detect Hdm2 fragments instead of immuno fluorescence to avoid nonspecific background staining and staining variability due to differential antibody reactivity. […]

| Substance | induction of β-strand assembly when mixed with Hdm2 210-275 (CD) [2] | induction of β-strand secondary structure when mixed with Hdm2 210-304 (CD) [1] | further results |
| --- | --- | --- | --- |
| Hdm2 210-304: Fragment of Hdm2 corresponding to residues 210-304 of SEQ ID NO:8 |  |  | binding to His-tagged mArfN37 immobilized on the SPR biosensor surface ([3]; His-mArfN37 captured by covalently linked His antibody): bind tightly; localization of Texas Red labeled Hdm2 construct in cells that did not express Arf [4]: evenly dispersed in the nucleoplasm; localization of Texas Red labeled Hdm2 construct when GFP-p19^Arf is expressed [4]: co-localized within nucleoli; also recorded: nucleolar localization |
| mArfN37: N-terminal fragment of mouse p19^Arf corresponding to residues 1-37 (MGRRFLVTVRIQRAGRPLQERVFLVKFVRSRRPRTAS) | striking transition from random conformations to β-strand secondary structure | striking transition from random conformations to β-strand secondary structure |  |
| human A1 (1-14): Peptide containing the human Arf motif A1, residues 1-14 (MVRRFLVTLRIRRA) | interaction | produce the random-to-β-strand structure transition |  |
| mouse A2 (16-30): Peptide corresponding to the mouse Arf motif A2, residues 16-30 (RPLQERVFLVKFVRS) | fail to induce β-strand assembly | induce the transition from random conformations to β-strand secondary structure |  |
| Hdm2 277-491: Texas Red labeled Hdm2 deletion construct containing residues 277-491 |  |  | localization of Texas Red labeled Hdm2 construct when GFP-p19^Arf is expressed [4]: nucleolar localization |
| residues 290-304 of SEQ ID NO:8: short synthetic Hdm2 peptide containing residues 290-304 of SEQ ID NO:8 (SFEEDPEISLADYWK; listed as Homo sapiens) |  |  | relative binding affinity for mArfN37 (SPR) ([3]; short synthetic Hdm2 peptides, 15 amino acids): modest affinity |

Now from value to substance, other results behind:

| induction of β-strand assembly when mixed with Hdm2 210-275 (CD) [2] | Substance | induction of β-strand secondary structure when mixed with Hdm2 210-304 (CD) [1] | further results |
| --- | --- | --- | --- |
| interaction | mouse A1 (1-14): Peptide corresponding to the mouse Arf motif A1, residues 1-14 (MGRRFLVTVRIQRA) | induce the transition from random conformations to β-strand secondary structure |  |
| fail to induce β-strand assembly | human A2 (16-30): Peptide containing the human Arf motif A2, residues 16-30 (GPPRVRVFVVHIPRL) | produce the random-to-β-strand structure transition |  |
